Measured values: PMC7725318, “Structures of three MORN repeat proteins and a re-evaluation of the proposed lipid-binding properties of MORN repeats” (PLoS ONE, 2020)

Assays:
[1] = molecular target: TbMORN1(2–15) (Trypanosoma brucei brucei strain Lister 427); experiment: SEC-MALS; Superdex 200 Increase 10/300 GL; 20 mM Tris-HCl pH 8.5, 200 mM NaCl, 2% (w/v) glycerol, 0.5 mM DTT; 100 μl of 2–4 mg/ml protein applied
[2] = molecular target: TbMORN1(7–15) (Trypanosoma brucei brucei strain Lister 427); experiment: as above
[3] = molecular target: TbMORN1(10–15) (Trypanosoma brucei brucei strain Lister 427); experiment: as above
[4] = molecular target: the molecule itself; experiment: crystal structure; sitting-drop vapour diffusion at 22°C; TbMORN1(7–15) in forms P21 and C2 and TgMORN1(7–15) in P43212 as extended dimers; PfMORN1(7–15) in C2221 as a V-shaped dimer with Zn2+

With TbMORN1(2–15) (domain or fragment) the stoichiometry N [1] was 2.

With TbMORN1(7–15) (domain or fragment) the stoichiometry N [2] was 2.

TbMORN1(10–15) (domain or fragment) was tested, and the stoichiometry N [3] was 2.

B1: TgMORN1(7–15) (domain or fragment, Toxoplasma gondii)
chain: EKYEGDWVNGKMHGHGKYIYSDGGVYEGDWIDGKMHGKGTYVFPNGNVYEGEWAHDMKDGYGVLTYQNGEKYEGYWKQDKVHGKGTLTYTRGDKYIGDWMDAKKDGEGELIYANGDRFKGQWADDRANGFGVFTYANGNRYEGEWTDDKRHGRGVFYCAEDGSAYEGEFVGGRKEGNGILRLATGHQLEGTWSGGQLVRVTSFVFAQDSPWLNVDL
notes: TgMORN1, Toxoplasma gondii (1092 bp open reading frame), MORN repeats 7–15; also called Toxoplasma gondii MORN1(7–15); source: E. coli Rosetta 2 (DE3)pLysS, purified; not shown: His10, N-terminal, cleaved
B1: binds [4].
